According to patent publication US20050059803A1 (ARIAD GENE THERAPEUTICS, published 2005):

Target: LexA-FKBP12 fusion protein (human FKBP12, bait plasmid pIC504) (human, UniProt P62942 1-104)
Test: cell-based or functional assay

Sequence of LexA-FKBP12 fusion protein (human FKBP12, bait plasmid pIC504) (P62942 other isoform, or with tags, fused parts or gaps limits assumed): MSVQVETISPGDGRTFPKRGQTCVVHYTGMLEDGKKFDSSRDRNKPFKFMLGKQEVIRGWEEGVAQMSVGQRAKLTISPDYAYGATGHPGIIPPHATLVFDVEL

B1: human RAPT1 rapamycin-binding domain fused to the VP16 activation domain (other)
chain: VSEELIRVAILWHEMWHEGLEEASRLYFGERNVKGMFEVLEPLHAMMERGPQTLKETSFNQAYGRDLMEAQEWCRKYMKSGNVKDLTQAWDLYYHVFRRISKQLPQLTSLELQYVSPKLLMCRDLELAVPGTYDPNQPIIRIQSIAPSLQVITSKQRPRKLTLMGSNGHEFVF
β-galactosidase activity (lacZ reporter, chemiluminescent substrate): ~1000 fold
